# Reference: the DeepSol protein solubility set
# Test: soluble on expression in E. coli; label from the status in PepcDB or PDB records
row,Sequence,soluble on expression in E. coli
1,MSLEPVQDDSVSGNFYISGKYMPSASHFGVFSAKEEKNPTVALYGLKQDWNGVSASSHADADFNNKGYSFKYENNPFLGFAGAIGYSMGGPRIEFEVSYETFDVKNQGGNYKNDAHRYCALDRKASSTNATASHYVLLKNEGLLDISLMLNACYDVVSEGIPFSPYICAGVGTDLISMFEAINPKISYQGKLGLSYSINPEASVFVGGHFHKVAGNEFRDISTLKAFATPSSAATPDLATVTLSVCHFGVELGGRFNFEGHHHHHH,not soluble
2,MSDLADNAIDAARQENVARILEAAERLFRHYGYAKTNVADIARELDMSPANIYRFFASKTEIHQTLCLRMLGASYQQALEIAHLPLSASERLRRYALGQHKLTVETMLDEQKVHEMVVVAIERDWHVIEKHISRLDDLLAGIIREGIEAGEFADVDPAVAARCFGASLVTLCHPQIVAQCLAKENRATPDELVEFAIRALKK,soluble
3,MTVIETPVKSVICMTSLQLSNFIKLDALSHVVGITSTRHLFNKEMNERLKQGKTAKIGIEGNFDNEVIMSVNPDVIFISPFKRGGYDAMREVGIPLVPHLGYKEMTPLGQAEWIKFIGLFIGEEETANRKFAAIEKHYNELKERVAHVKKRPVLEHHHHHH,not soluble
4,PSRPVRPNNRCFSCNKKVGVMGFKCKCGSTFCGSHRYPEKHECSFDFKEVG,soluble
5,MTSVTDRSAHSAERSTEHTIDIHTTAGKLAELHKRREESLHPVGEDAVEKVHAKGKLTARERIYALLDEDSFVELDALAKHRSTNFNLGEKRPLGDGVVTGYGTIDGRDVCIFSQDATVFGGSLGEVYGEKIVKVQELAIKTGRPLIGINDGAGARIQEGVVSLGLYSRIFRNNILASGVIPQISLIMGAAAGGHVYSPALTDFVIMVDQTSQMFITGPDVIKTVTGEEVTMEELGGAHTHMAKSGTAHYAASGEQDAFDYVRELLSYLPPNNSTDAPRYQAAAPTGPIEENLTDEDLELDTLIPDSPNQPYDMHEVITRLLDDEFLEIQAGYAQNIVVGFGRIDGRPVGIVANQPTHFAGCLDINASEKAARFVRTCDCFNIPIVMLVDVPGFLPGTDQEYNGIIRRGAKLLYAYGEATVPKITVITRKAYGGAYCVMGSKDMGCDVNLAWPTAQIAVMGASGAVGFVYRQQLAEAAANGEDIDKLRLRLQQEYEDTLVNPYVAAERGYVDAVIPPSHTRGYIGTALRLLERKIAQLPPKKHGNVPL,soluble
6,MGSDKIHHHHHHFKLLAADGDSLLVGARNAVYNLSLSTLSVNHKIDWKPPAEHIEECIMKGKSKTDCQNYIRVLARKSAGVSLVCGTHAFSPKCREYTVTEFGIRNTRQFDGQGISPYDPKHNSSALYVPGTNQLFVATVTDFVGNDALIYRKTIDETPSSKSAANIRTQSYDARVLNAPNFVATFAYKEHVYFWFREIASEAIDNNEEPQIYARVARVCKNDKGGARPANERWTSYLKARLNCSLPSGSSPFYFNELKAVSDPIDAGNNNHVVYTVFSTPDSDVRMSAVCKFSMKKIREEFDNGTFKHQNNAQSMWMAFNRNEVPKPRPGSCSPDSTKLPENTVSFILHHPLLHRPIPSVAAPLLVEGADRADLTQITVLPRVRAVGGHNYDILFIGTSDGKVLKVVEVDGNATVIQSATVFQRGVPIVNLLTTKES,not soluble
7,MTLDANSAPVRDMASAHFSPGEDCRRKIRDLCRQARISVDICVFTISDDQLSDEIRACHQRGVAVRVISDSEKQFDVGSDIAALREAGVPVRIDDTPFHMHHKFAVFDGRTLLNGSFNWTRSATTGNEENLLVIDHPQLVASYLKEFNELWSRYAPRLEHHHHHH,not soluble
8,MAHHHHHHMFNNDPLQKYDKELFDLLEKEKNRQIETINLIASENLTNTAVRECLGDRISNKYSEGYPHKRYYGGNDYVDKIEELCYKRALEAFNVSEEEWGVNVQPLSGSAANVQALYALVGVKGKIMGMHLCSGGHLTHGFFDEKKKVSITSDLFESKLYKCNSEGYVDMESVRNLALSFQPKVIICGYTSYPRDIDYKGFREICDEVNAYLFADISHISSFVACNLLNNPFTYADVVTTTTHKILRGPRSALIFFNKKRNPGIDQKINSSVFPSFQGGPHNNKIAAVACQLKEVNTPFFKEYTKQVLLNSKALAECLLKRNLDLVTNGTDNHLIVVDLRKYNITGSKLQETCNAINIALNKNTIPSDVDCVSPSGIRIGTPALTTRGCKEKDMEFIADMLLKAILLTDELQQKYGKKLVDFKKGLVNNPKIDELKKEVVQWAKNLPFA,soluble
9,MGSDKIHHHHHHMAIAIDFGTSNTVIARWNPVTQQPETITLPGLSIQQSLNPPLIPSLVYVEDANQAKILIGQQVRDRGLDLKGDTRFFRSFKRGIGADIQGFLPELDGQIVTFEQVGQWFLTEVIQQLAPLEGGLDSLVLTVPVDSFEAYRYWLGQVCQALPVEQVRMLDEPTAAALGYGLADQEILLVVDFGGGTLDLSLVQLNKSAQTNTKPVGFLLKWGNKSLAEESKQKTKTARVLAKAGQNLGGTDIDNWLVDYFTKTQGLAVSPLTTRLAERIKIQLSTQNQASEVYFDDENFESYELELNRDTLESILKEHSFFEQLDDAMANLLQQARRQGIELADINAVLLVGGTVQLPAVQTWVKQYFQPDKIRCEKPFEAIAQGALQLSQGVEIKDFLYHSYGVRYWDRRNQRHSWHSIIKAGQGYPMTQPVELVLGASLENQPSIELILGELGTETGGTEVYFDGDRLITRRLDTGVTSVKPLNDKEGARTIAQLTPPGFPGSDRIKILFQVDEQRFLRITVEDLLTNDTLLENQLVAQLS,not soluble
10,MGSDKIHHHHHHMSAEPIIQVENLSKMYRLGLKNEIHDSIAEAAVSWLKTPVKNYRNLKSLNTFGVPVDEDDPGVLWALRDVSFEVAEGEVLGIIGRNGAGKSTLLKVLSRITEPTRGRVIINGRVASLLEVGTGFHPDLTGRENVFMNGSILGMRKGEIAAKFDEIVDFAGLDRFIDTPIKRYSSGMVMRLAFSVAAHLEPEILIIDEVLAVGDAAFQKKCLDKMHKVASGGRTVLFVSHQLNSVSALCGRVMHMDSGRIIKNGDTRQVIDHYLTSAGFGVTTALHDRKDRCGAGHVRFVNSWIEDMQGNRLASAVSGEPVRIALEYQSHAEESFSDVKVYLRLYSMLNKPAGLFSNVYTEERIDISAGENGVLYCTVPRMMLNGGRYFFHLKLEAQGRQLDHIENAGYMEVEAGNVYANGKMPNDQWVYLHDYGWSGEPLHKG,not soluble
11,MPLLDSFTVDHTRMNAPAVRVAKTMQTPKGDTITVFDLRFTMPNKDILSERGIHTLEHLYAGFMRNHLNGSQVEIIDISPMGCRTGFYMSLIGAPTEQQVAQAWLAAMQDVLKVESQEQIPELNEYQCGTAAMHSLEEAKAIAKNVIAAGISVNRNDELALPESMLNELKVH,not soluble
12,MAHHHHHHMCLLIIEHLFYSPCTVTTVLSLKLFGGGEKTGKMSDVPKSQVGTDAKVAVAKKYTGEYYVKGMVGDKKSFAIEHSRGRQKKHTVNEFCVGDAIGRGAFAEVFQCWRPEEPHIVYAMKKIRKDLIVKRKQSLNVHTERDLLSDAKLRQKRVSCPWITDLVVAFQDQDFLYIVTEYCSGGDLISWLIRYDVFPEETARFYFVELVLALNALHKMGYVHRDVKPDNVLIDREGHVKLADFGLSKRDPDQAESTSVADDSYLTEDVTVDDDVKKRFRDKKERKVMFFSTVGSPAYIAPEVLIGRGYDYSCDWWSAGVILYEMIFGYPPFFNDNNTATAKKIIQFKEHLEFPKDQTTVSKEAIDLISHLIADSKERYGFEEIIRHPFCKGVPLTDSIRNEKAPFSVELNSPRDLQYFEPAPDNADIQKQPMTAVSREDQSVFVGFTSKLCDRNQSTTWSRALGRFHELQNFSDDD,not soluble
13,GHMQEKPPKELVNEWSLKIRKEMRVVDRQIRDIQREEEKVKRSVKDAAKKGQKDVCIVLAKEMIRSRKAVSKLYASKAHMNSVLMGMKNQLAVLRVAGSLQKSTEVMKAMQSLVKIPEIQATMRELSKEMMKAGIIEEMLEDTFESMDDQEEMEEEAEMEIDRILFEITAGALGKAPSKVTDALPEPEPPGAMAASEDEEEEEEALEAMQSRLATLRS,soluble
14,MGGSHHHHHHGMASMTGGQQMGRTLYDDDDKDRWGSRKIVVVGGVAGGASVAARLRRLSEEDEIIMVERGEYISFANCGLPYYIGGVITERQKLLVQTVERMSKRFNLDIRVLSEVVKINKEEKTITIKNVTTNETYNEAYDVLILSPGAKPIVPSIPGIEEAKALFTLRNVPDTDRIKAYIDEKKPRHATVIGGGFIGVEMVENLRERGIEVTLVEMANQVMPPIDYEMAAYVHEHMKNHDVELVFEDGVDALEENGAVVRLKSGSVIQTDMLILAIGVQPESSLAKGAGLALGVRGTIKVNEKFQTSDPHIYAIGDAIEVKDFVTETETMIPLAWPANRQGRMLADIIHGHTDSLYKGTLGTSVAKVFDLTVATTGLNEKILKRLNIPYEVVHVQANSHAGYYPNATPVLIKLIFNKDSGKIYGAQTLGRDGVDKRMDVIATAIKANLTVLDLPDLELSYAPPYSSAKDPVNMVGYAASNIVDGFVDTVQWHEIDRIVENGGYLIDVREPNELKQGMIKGSINIPLDELRDRLEEVPVDKDIYITCQLGMRGYVAARMLMEKGYKVKNVDGGFKLYGTVLPERIVY,soluble
15,MYRAGAVLLRGATRTRLLAAASAHQSFATFSQRNQSILMMKSMELAGNSGERRFYSTHDDPIAVDDSLELYKDLGGMSPIQVPADMPNVPMLAINRYPLFPGFIKKVDIVKDDNLKALIRRQLSLKQPYAGVFVKRDDENKEETITSLSEVYPTGSFVQIIEVRDQGSVLELVLSAHRRIRALEPIDEITPKNETPLNGRRARGKRAASATSPLTPPPSPPPLAPSVASVAPEISATEEKEEKTTPPSATGEKQKKGIIMVRTENVVAEPVPKNNETKATMMAIVQTIRDVVQFNQLFGQQINLLLHPSQNVIDNPVYLCDLVATLVQSAETKDLQEMMDEIDVSKRLKIALLLIQKEKAVAKLKYDINKDVEKKVQDHHRKYLLNEQLKVIKKELGIEKDEKTTIIEKIDERIKTLAVPEYALKVINEEKTKLQFLDPHSSEFSVTRNYLEWLTSVPWGLTSPENRRLSVAKKALDEGHYGMKDVKERIMEFIAVNLLRKSIGGKILCFHGPPGVGKTSIAKSIATALNREYFRFSVGGMTDVAEIKGHRRTYVGAMPGKMIQCMKKVKTENPLVLIDEVDKIGGAGFHGDPASALLELLDPEQNANFNDHFLDVPVDLSRVLFICTANEISKIPGPLRDRMEMIDVSGYLAEEKVEIAHQHLIPQLRKDTSLATEQLKIEDSALEELIKHYCRESGVRNLQQHIERIFRKAALQIAEQQNEDEEPAEKATTAITENSEAEPITSTSSADCLKSSAEQIVVCTENLQKFVGRPKFTSDRMYEVTPPGVIMGLAWTAMGGSALYIETVLKRPVDLTNDKDGSIETTGNLGDVMKESVRTALTVAKGILAREQPDNKFFDKAHIHIHVPEGATPKDGPSAGVTLVSSLLSLALDRPVVQDMAMTGEISLTGKVLPVGGIREKVIAARRVGAKRVFLPNENRRDFDDLPEFMKSELDIRFVSHYDELYEHLFQ,not soluble
16,MSLSDLPDDIFQIIVKKLGDEDFNHLGPIIRSNKRGRDIGLSREILKSANLMGMCLHPPNIFPGQLFRNFFVRCLEFENATAMYYEAIRLIVREENVMGSLFLLNQLVPTYDYATIAYAFFQMCAGRGDLAGTTFDTIFEQNSVSRWGSIYSFELEVKCEALIDTIMDFQPHFGMTFAPDWKFASSDCLSISECPDWHGVEYFCEGCYIYYVALRILEVL,soluble
17,MGSDKIHHHHHHMKIEFDVVVVGAGPSGLSCAYVLAKNGLKVAVVEKGEYPGSKNVMGGVLYVHPLKEIMPDFLEKAANSKALERNVIEQNLWLLGNEGVIKIGHRNVEWKENPNAFTVLRANFDRWFAQEVEKAGALIIPKTKVEDFLRNEKGEIAGVVTSRPKGEIHSKAVVIAEGVNPILTMKAGLRKEDLKPHMVAVAVKEVISVPEDVVNRVFGVEGNDGATIELLGSWSEGMFGMGFLYANRSSVSLGCGVLLEDLRKKKIKPYQLLENLKNHPVISDMLGEYRNNTMEYLAHLIPEGGYYAMPKVYGDRVLVCGDAAMLVNSIHREGSNHAITSGRLAAETLLEAFEKGDFSEKILKNYYLRLKESFILKDLEKYKDLMPTMEKNHQFVEIYPDLANDALKRFLQVDGTPKWDVQKQIADMVLSRRSLIGISLDLLRFWRAVR,not soluble
